Data from paper PMC7982615, “Phase 1 study of telisotuzumab vedotin in Japanese patients with advanced solid tumors” (Cancer Medicine, 2021).

Assay: Safety and tolerability (TEAEs, DLTs, AESIs) in phase 1 dose-escalation study of teliso‐v
Assay type: in vivo, human
Procedure: This phase 1, open‐label, dose‐escalation clinical trial was conducted at two sites in Japan (NCT03311477). Enrollment began on November 6, 2017, and the trial was completed on March 4, 2019.
Escalation into the higher dose level proceeded if the first three evaluable patients in the lower dose level completed the first‐cycle (for at least 21 days) safety assessment without experiencing a dose‐limiting toxicity (DLT). DLT evaluations for dose escalation and determination of RP2D were carried out by investigators, study sponsor, and an independent safety monitor. […] No premedication was required. On the basis of confirmed availability of archival tumor tissue at enrollment, patients were retrospectively analyzed for c‐Met expression and MET amplification. c‐Met expression was determined by immunohistochemistry (IHC), and MET amplification was determined by fluorescence in situ hybridization or sequencing of plasma or tumor DNA.
Safety assessments included treatment‐emergent adverse events (TEAEs) graded according to the National Cancer Institute Common Terminology Criteria for Adverse Events version 4.03. TEAEs, vital signs, physical examinations, electrocardiograms, laboratory tests, and ECOG performance status were monitored during the study. Any grade ≥3 study drug‐related nonhematologic toxicity was documented as a DLT, except as follows: grade 3 nausea or vomiting lasting ≤48 hours that was successfully managed with antiemetics; grade 3 diarrhea successfully managed with antidiarrheal; grade 3 constipation lasting ≤7 days; grade 3 acute infusion reaction that resolved to grade ≤1 within 24 hours after the end of dosing; grade 3 and 4 laboratory tests including but not limited to lactate dehydrogenase, alkaline phosphatase, and gamma‐glutamyl transferase that were considered nonclinically significant by the investigator; liver function test abnormalities; grade 3 and 4 electrolyte imbalance unless associated with clinical symptomatology despite supplementation; and grade 3 hyperglycemia that was manageable without hospitalization. The following hematologic toxicities were documented as a DLT: any grade 4 hematologic toxicity (excluding febrile neutropenia or leukopenia lasting for ≤7 days, or lymphopenia); anemia requiring red blood cell transfusion; thrombocytopenia requiring platelet transfusion; grade 3 thrombocytopenia in the presence of grade ≥2 bleeding; and grade ≥3 febrile neutropenia. Toxicity management criteria are described in the Supplementary appendix.
All data were summarized and tabulated by dose cohort. Categoric data were summarized in terms of frequency counts and percentages. Continuous data were summarized using descriptive statistics, including number of observations, mean, standard deviation, median, minimum, and maximum. No formal statistical analysis was performed for efficacy variables, which were all exploratory in nature. ORR was defined as the proportion of patients with a confirmed partial response (PR) or complete response (CR). Duration of response was defined as time from a patient's initial objective response to the first date of disease progression (PD) or death. The overall disease control rate was defined as the proportion of patients with CR, PR, or stable disease (SD). […] PFS was estimated using the Kaplan–Meier method. Efficacy analyses are presented with two‐sided exact 95% binomial CI.

Teliso‐v: antibody‐drug conjugate: anti–c‐Met humanized monoclonal antibody ABT‐700 coupled to monomethyl auristatin E through a valine‐citrulline linker, drug:antibody ratio approximately three
Alanine aminotransferase increased, TEAE regardless of relationship (2.4 mg/kg Q3W, n = 3): 0 n (%) | Alanine aminotransferase increased, TEAE related to teliso‐v (2.4 mg/kg Q3W, n = 3): 0 n (%) | Alopecia, TEAE regardless of relationship (2.4 mg/kg Q3W, n = 3): 0 n (%) | Alopecia, TEAE related to teliso‐v (2.4 mg/kg Q3W, n = 3): 0 n (%) | Anemia, TEAE regardless of relationship (2.4 mg/kg Q3W, n = 3): 1 (33) n (%) | Aspartate aminotransferase increased, TEAE regardless of relationship (2.4 mg/kg Q3W, n = 3): 0 n (%) | Aspartate aminotransferase increased, TEAE related to teliso‐v (2.4 mg/kg Q3W, n = 3): 0 n (%) | Back pain, TEAE regardless of relationship (2.4 mg/kg Q3W, n = 3): 1 (33) n (%) | Constipation, TEAE regardless of relationship (2.4 mg/kg Q3W, n = 3): 0 n (%) | Decreased appetite, TEAE regardless of relationship (2.4 mg/kg Q3W, n = 3): 2 (67) n (%) | Decreased appetite, TEAE related to teliso‐v (2.4 mg/kg Q3W, n = 3): 2 (67) n (%) | Diarrhea, TEAE regardless of relationship (2.4 mg/kg Q3W, n = 3): 1 (33) n (%) | Fatigue, TEAE regardless of relationship (2.4 mg/kg Q3W, n = 3): 1 (33) n (%) | Fatigue, TEAE related to teliso‐v (2.4 mg/kg Q3W, n = 3): 1 (33) n (%) | Hypoalbuminemia, TEAE regardless of relationship (2.4 mg/kg Q3W, n = 3): 0 n (%) | Malaise, TEAE regardless of relationship (2.4 mg/kg Q3W, n = 3): 2 (67) n (%) | Malaise, TEAE related to teliso‐v (2.4 mg/kg Q3W, n = 3): 2 (67) n (%) | Nausea, TEAE regardless of relationship (2.4 mg/kg Q3W, n = 3): 1 (33) n (%) | Nausea, TEAE related to teliso‐v (2.4 mg/kg Q3W, n = 3): 1 (33) n (%) | Neutrophil count decreased, TEAE regardless of relationship (2.4 mg/kg Q3W, n = 3): 0 n (%) | Neutrophil count decreased, TEAE related to teliso‐v (2.4 mg/kg Q3W, n = 3): 0 n (%) | Peripheral neuropathy, TEAE regardless of relationship (2.4 mg/kg Q3W, n = 3): 2 (67) n (%) | Peripheral neuropathy, TEAE related to teliso‐v (2.4 mg/kg Q3W, n = 3): 2 (67) n (%) | Peripheral sensory neuropathy, TEAE regardless of relationship (2.4 mg/kg Q3W, n = 3): 1 (33) n (%) | Peripheral sensory neuropathy, TEAE related to teliso‐v (2.4 mg/kg Q3W, n = 3): 1 (33) n (%) | Punctate keratitis, TEAE regardless of relationship (2.4 mg/kg Q3W, n = 3): 1 (33) n (%) | Punctate keratitis, TEAE related to teliso‐v (2.4 mg/kg Q3W, n = 3): 1 (33) n (%) | Weight decreased, TEAE regardless of relationship (2.4 mg/kg Q3W, n = 3): 1 (33) n (%) | Weight decreased, TEAE related to teliso‐v (2.4 mg/kg Q3W, n = 3): 1 (33) n (%) | White blood cell count decreased, TEAE regardless of relationship (2.4 mg/kg Q3W, n = 3): 0 n (%) | White blood cell count decreased, TEAE related to teliso‐v (2.4 mg/kg Q3W, n = 3): 0 n (%) | Tolerability (2.7 mg/kg Q3 W, Japanese patients): well‐tolerated | Alanine aminotransferase increased, TEAE regardless of relationship (2.7 mg/kg Q3W, n = 6): 2 (33) n (%) | Alanine aminotransferase increased, TEAE related to teliso‐v (2.7 mg/kg Q3W, n = 6): 2 (33) n (%) | Alopecia, TEAE regardless of relationship (2.7 mg/kg Q3W, n = 6): 2 (33) n (%) | Alopecia, TEAE related to teliso‐v (2.7 mg/kg Q3W, n = 6): 2 (33) n (%) | Anemia, TEAE regardless of relationship (2.7 mg/kg Q3W, n = 6): 1 (17) n (%) | Aspartate aminotransferase increased, TEAE regardless of relationship (2.7 mg/kg Q3W, n = 6): 2 (33) n (%) | Aspartate aminotransferase increased, TEAE related to teliso‐v (2.7 mg/kg Q3W, n = 6): 2 (33) n (%) | Back pain, TEAE regardless of relationship (2.7 mg/kg Q3W, n = 6): 1 (17) n (%) | Constipation, TEAE regardless of relationship (2.7 mg/kg Q3W, n = 6): 2 (33) n (%) | Decreased appetite, TEAE regardless of relationship (2.7 mg/kg Q3W, n = 6): 1 (17) n (%) | Decreased appetite, TEAE related to teliso‐v (2.7 mg/kg Q3W, n = 6): 1 (17) n (%) | Diarrhea, TEAE regardless of relationship (2.7 mg/kg Q3W, n = 6): 1 (17) n (%) | Fatigue, TEAE regardless of relationship (2.7 mg/kg Q3W, n = 6): 1 (17) n (%) | Fatigue, TEAE related to teliso‐v (2.7 mg/kg Q3W, n = 6): 1 (17) n (%) | Hypoalbuminemia, TEAE regardless of relationship (2.7 mg/kg Q3W, n = 6): 2 (33) n (%) | Malaise, TEAE regardless of relationship (2.7 mg/kg Q3W, n = 6): 0 n (%) | Malaise, TEAE related to teliso‐v (2.7 mg/kg Q3W, n = 6): 0 n (%) | Nausea, TEAE regardless of relationship (2.7 mg/kg Q3W, n = 6): 2 (33) n (%) | Nausea, TEAE related to teliso‐v (2.7 mg/kg Q3W, n = 6): 2 (33) n (%) | Neutrophil count decreased, TEAE regardless of relationship (2.7 mg/kg Q3W, n = 6): 2 (33) n (%) | Neutrophil count decreased, TEAE related to teliso‐v (2.7 mg/kg Q3W, n = 6): 2 (33) n (%) | Peripheral neuropathy, TEAE regardless of relationship (2.7 mg/kg Q3W, n = 6): 0 n (%) | Peripheral neuropathy, TEAE related to teliso‐v (2.7 mg/kg Q3W, n = 6): 0 n (%) | Peripheral sensory neuropathy, TEAE regardless of relationship (2.7 mg/kg Q3W, n = 6): 3 (50) n (%) | Peripheral sensory neuropathy, TEAE related to teliso‐v (2.7 mg/kg Q3W, n = 6): 3 (50) n (%) | Punctate keratitis, TEAE regardless of relationship (2.7 mg/kg Q3W, n = 6): 1 (17) n (%) | Punctate keratitis, TEAE related to teliso‐v (2.7 mg/kg Q3W, n = 6): 1 (17) n (%) | Weight decreased, TEAE regardless of relationship (2.7 mg/kg Q3W, n = 6): 2 (33) n (%) | Weight decreased, TEAE related to teliso‐v (2.7 mg/kg Q3W, n = 6): 1 (17) n (%) | White blood cell count decreased, TEAE regardless of relationship (2.7 mg/kg Q3W, n = 6): 3 (50) n (%) | White blood cell count decreased, TEAE related to teliso‐v (2.7 mg/kg Q3W, n = 6): 3 (50) n (%)
